Reference: patent US20240092849A1 (MIT, published 2024)
One block for each binder: values may come before it. Bridge positions count the residues as written; N and C are the ends. Square brackets hold non-standard residues; d marks the D form. Ends that are not written are not given here. alpha‑4‑pentenylAla = alpha-4-pentenyl alanine, stapling residue joined by ring-closing olefin metathesis; Cha = N[C@@H](CC1CCCCC1)C(=O)O; Nle = CCCC[C@H](N)C(=O)O; Aib = CC(C)(N)C(=O)O

Legend:
[1] = target: T1, Mcl-1 (human, UniProt Q07820 172-327, limits assumed); experiment: biolayer interferometry, biotinylated peptide on streptavidin probe
T1 construct: Recombinant protein in solution assays; It was biotinylated in the on-bead screens; also called human Mcl-1; BioMcl-1 (biotinylated, in the bead screens)
T1 sequence (Q07820 172-327 limits assumed): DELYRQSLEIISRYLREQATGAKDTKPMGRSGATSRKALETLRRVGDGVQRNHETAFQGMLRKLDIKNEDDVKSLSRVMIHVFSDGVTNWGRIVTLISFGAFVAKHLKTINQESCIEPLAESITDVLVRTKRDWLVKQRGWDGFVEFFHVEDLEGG
Source text: We used biolayer interferometry to measure the kinetics of binding of stapled peptides to Mcl-1 (FIG. 1(b)). We generated biotinylated stapled peptides and attached these to a streptavidin-modified probe surface.

[2] = target: T1, Mcl-1; experiment: fluorescence anisotropy competition with fluoresceinated Bim 21mer for Mcl-1
Source text: The standard errors reported are over three experiments.
Position 2e is usually conserved as small (alanine, glycine, serine) in natural BH3 sequences.

[3] = target: murine Mcl-1 (murine, UniProt P97287 1-331); experiment: cell-based or functional assay
Chain of murine Mcl-1 (P97287 whole entry): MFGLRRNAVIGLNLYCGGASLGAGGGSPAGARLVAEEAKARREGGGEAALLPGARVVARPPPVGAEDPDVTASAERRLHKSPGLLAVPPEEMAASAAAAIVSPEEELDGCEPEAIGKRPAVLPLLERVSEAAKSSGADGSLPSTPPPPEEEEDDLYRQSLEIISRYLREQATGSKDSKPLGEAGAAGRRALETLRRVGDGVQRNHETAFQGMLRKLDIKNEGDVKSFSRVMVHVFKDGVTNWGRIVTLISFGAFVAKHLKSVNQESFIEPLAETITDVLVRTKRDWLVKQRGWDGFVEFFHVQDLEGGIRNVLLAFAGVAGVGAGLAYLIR

B2: M2d (peptide)
peptide: IW[Nle][Aib]QGLRRLGDEI[alpha‑4‑pentenylAla]AYY[alpha‑4‑pentenylAla]RR
modifications: staple 15-19
notes: Stapled peptide IWBAibQGLRRLGDEIXAYYXRR
IC50 [2]: 106 nM

B3: M1d (peptide)
peptide: IW[Nle]TQGLRRLGDEI[alpha‑4‑pentenylAla]AYY[alpha‑4‑pentenylAla]RR
modifications: staple 15-19
notes: Truncated, stapled variant of MS1, usually printed 'Mld'; also called Mld
IC50 [2]: 350 nM

Continued, values first:

Kd [1]: 5 nM
B1: biotinylated M3d (peptide)
peptide: IW[Nle][Aib]QG[Cha]RRLGDEI[alpha‑4‑pentenylAla]AYY[alpha‑4‑pentenylAla]RR
modifications: staple 15-19; also: biotinylated, site and linker not given here
notes: also called M3d (biotinylated stapled peptide)

BH3 profiling (mitochondrial membrane integrity, JC1 dye) in Mcl-1/Myc 2640 cells, EC50 [3]: 30 nM
IC50 [2]: 72 nM
B4: M3d (peptide)
peptide: IW[Nle][Aib]QG[Cha]RRLGDEI[alpha‑4‑pentenylAla]AYY[alpha‑4‑pentenylAla]RR
modifications: staple 15-19
notes: Stapled peptide IWBAibQGChaRRLGDEIXAYYXRR
